Reference: PMC10663500, “High-throughput analysis system of interaction kinetics for data-driven antibody design” (Scientific Reports, 2023)
Positions count from the first letter of the chain named.

B1: toripalimab Fab, wild type (Fab, V domains shown)
VH: QGQLVQSGAEVKKPGASVKVSCKASGYTFTDYEMHWVRQAPIHGLEWIGVIESETGGTAYNQKFKGRVTITADKSTSTAYMELSSLRSEDTAVYYCAREGITTVATTYYWYFDVWGQGTTVTVSS
VL: DVVMTQSPLSLPVTLGQPASISCRSSQSIVHSNGNTYLEWYLQKPGQSPQLLIYKVSNRFSGVPDRFSGSGSGTDFTLKISRVEAEDVGVYYCFQGSHVPLTFGQGTKLEIK
notes: toripalimab Fab heavy chain; toripalimab stands in PDB 6JBT; toripalimab Fab light chain; also called WT; source: Brevibacillus, culture supernatant (ammonium sulfate precipitate); not shown: 6xHis, C-terminal, kept; 6xHN, C-terminal, kept
B2: toripalimab Fab H.D31A (Fab, V domains shown)
VH: B1 VH with D31A
VL: B1 VL
notes: heavy chain of Sm3 with this change; numbers count from the chain's first residue; as the light chain of Sm3; source: Brevibacillus, culture supernatant (ammonium sulfate precipitate); not shown: 6xHis, C-terminal, kept; 6xHN, C-terminal, kept
B3: toripalimab Fab H.E54Y (Fab, V domains shown)
VH: B1 VH with E54Y
VL: B1 VL
notes: as for B2
B4: toripalimab Fab H.T55A (Fab, V domains shown)
VH: B1 VH with T55A
VL: B1 VL
notes: as for B2
B5: toripalimab Fab H.T55Y (Fab, V domains shown)
VH: B1 VH with T55Y
VL: B1 VL
notes: as for B2
B6: toripalimab Fab H.G56A (Fab, V domains shown)
VH: B1 VH with G56A
VL: B1 VL
notes: as for B2
B7: toripalimab Fab H.G100Y (Fab, V domains shown)
VH: B1 VH with G100Y
VL: B1 VL
notes: as for B2
B8: toripalimab Fab H.I101A (Fab, V domains shown)
VH: B1 VH with I101A
VL: B1 VL
notes: as for B2
B9: toripalimab Fab H.I101Y (Fab, V domains shown)
VH: B1 VH with I101Y
VL: B1 VL
notes: as for B2
B10: toripalimab Fab H.T102A (Fab, V domains shown)
VH: B1 VH with T102A
VL: B1 VL
notes: as for B2
B11: toripalimab Fab H.T102Y (Fab, V domains shown)
VH: B1 VH with T102Y
VL: B1 VL
notes: as for B2
B12: toripalimab Fab H.T103A (Fab, V domains shown)
VH: B1 VH with T103A
VL: B1 VL
notes: as for B2
B13: toripalimab Fab H.T103Y (Fab, V domains shown)
VH: B1 VH with T103Y
VL: B1 VL
notes: as for B2
B14: toripalimab Fab H.Y108A (Fab, V domains shown)
VH: B1 VH with Y108A
VL: B1 VL
notes: as for B2
B15: toripalimab Fab H.E33Y (Fab, V domains shown)
VH: B1 VH with E33Y
VL: B1 VL
notes: as for B2
B16: toripalimab Fab H.W110A (Fab, V domains shown)
VH: B1 VH with W110A
VL: B1 VL
notes: as for B2
B17: toripalimab Fab H.Y111A (Fab, V domains shown)
VH: B1 VH with Y111A
VL: B1 VL
notes: as for B2
B18: toripalimab Fab H.F112A (Fab, V domains shown)
VH: B1 VH with F112A
VL: B1 VL
notes: as for B2
B19: toripalimab Fab H.D113A (Fab, V domains shown)
VH: B1 VH with D113A
VL: B1 VL
notes: as for B2
B20: toripalimab Fab H.D113Y (Fab, V domains shown)
VH: B1 VH with D113Y
VL: B1 VL
notes: as for B2
B21: toripalimab Fab L.H31A (Fab, V domains shown)
VH: B1 VH
VL: B1 VL with H31A
notes: as the heavy chain of Sm3; light chain of Sm3 with this change; numbers count from the chain's first residue; source: Brevibacillus, culture supernatant (ammonium sulfate precipitate); not shown: 6xHis, C-terminal, kept; 6xHN, C-terminal, kept
B22: toripalimab Fab L.H31Y (Fab, V domains shown)
VH: B1 VH
VL: B1 VL with H31Y
notes: as for B21
B23: toripalimab Fab H.H35A (Fab, V domains shown)
VH: B1 VH with H35A
VL: B1 VL
notes: as for B2
B24: toripalimab Fab H.H35Y (Fab, V domains shown)
VH: B1 VH with H35Y
VL: B1 VL
notes: as for B2
B25: toripalimab Fab L.Y37A (Fab, V domains shown)
VH: B1 VH
VL: B1 VL with Y37A
notes: as for B21
B26: toripalimab Fab L.E39A (Fab, V domains shown)
VH: B1 VH
VL: B1 VL with E39A
notes: as for B21
B27: toripalimab Fab L.Q95Y (Fab, V domains shown)
VH: B1 VH
VL: B1 VL with Q95Y
notes: as for B21
B28: toripalimab Fab L.G96A (Fab, V domains shown)
VH: B1 VH
VL: B1 VL with G96A
notes: as for B21
B29: toripalimab Fab L.S97Y (Fab, V domains shown)
VH: B1 VH
VL: B1 VL with S97Y
notes: as for B21
B30: toripalimab Fab H.I51Y (Fab, V domains shown)
VH: B1 VH with I51Y
VL: B1 VL
notes: as for B2
B31: toripalimab Fab H.E52A (Fab, V domains shown)
VH: B1 VH with E52A
VL: B1 VL
notes: as for B2
B32: toripalimab Fab L.L101H (Fab, V domains shown)
VH: B1 VH
VL: B1 VL with L101H
notes: as for B21
B33: toripalimab Fab L.L101W (Fab, V domains shown)
VH: B1 VH
VL: B1 VL with L101W
notes: as for B21

Columns and labels:
[1] = target: T1, human programmed cell death protein 1 (hPD-1) C93S (aa 24-167) (Homo sapiens, UniProt Q15116, C93S); experiment: SPR; Carterra LSA; Fab from the ammonium sulfate precipitate of the culture supernatant immobilised on a NiHC200M chip; hPD-1 (1-1024 nM) or mPD-1-Fc (4-1024 nM) as analyte, fourfold dilution series, no regeneration; HBS-EP pH 7.4, 25 °C; medians over the spots of a construct, KD = koff/kon; conditions: one partner purified
T1 construct: made as a fusion with a TEV site and human Fc; the Fc was cut off with TEV protease; source: Expi293F, purified (Protein A, TEV cleavage of Fc, SEC; monomer fractions); not shown: Fc (human), C-terminal, cleaved
Procedure, shortened: (§1)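 Fabs from Brevibacillus culture supernatants were ammonium sulfate-precipitated, redissolved in HBS-EP and captured in duplicate on a NiHC200M chip (Carterra LSA, 25 °C). Human PD-1 (1–1024 nM) or mouse PD-1-Fc (4–1024 nM) flowed as fourfold series without regeneration, with 10 min association and 5 min dissociation; unconfirmed binders were set to kon 10^3 […], koff 10^−2 s^−1. Rates came from kdka model fits (slow- or fast-dissociation settings, best fit); KD is koff/kon from per-construct medians.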

[2] = target: T2, mouse programmed cell death protein 1 Fc fusion protein (mPD-1-Fc), mPD-1 C60S (aa 25-167) (Mus musculus, UniProt Q02242, stabilised); experiment: as above; conditions: one partner purified
T2 construct: not cleaved; source: Expi293F, purified (Protein A, SEC; dimeric fraction); not shown: Fc (human), C-terminal, kept
Procedure, shortened: as §1

T1 sequence (Q15116 24-167 C93S): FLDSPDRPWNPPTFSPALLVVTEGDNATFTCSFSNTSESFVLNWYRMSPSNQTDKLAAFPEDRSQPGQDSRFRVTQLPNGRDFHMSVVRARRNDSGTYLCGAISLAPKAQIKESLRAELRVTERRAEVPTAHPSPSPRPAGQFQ

Binder	Kd [1] [µM]	koff [1] [s⁻¹]	kon [1] [M⁻¹ s⁻¹]	Kd [2] [µM]	koff [2] [s⁻¹]	kon [2] [M⁻¹ s⁻¹]
B1	< 0.000841	< 1e-05	11900	–	–	–
B2	< 0.000861	< 1e-05	11600	0.204	0.00913	44700
B3	< 0.000326	< 1e-05	30700	0.0803	0.00402	50100
B4	0.00576	4.01e-05	6960	0.411	0.0151	36800
B5	< 0.000354	< 1e-05	28300	0.0358	0.00179	49900
B6	< 0.00146	< 1e-05	6870	0.154	0.00466	30200
B7	0.107	0.00166	15500	–	–	–
B8	0.107	0.000592	5550	–	–	–
B9	0.0545	0.000227	4170	–	–	–
B10	0.0659	0.000404	6130	–	–	–
B11	0.2	0.00148	7420	–	–	–
B12	< 0.0012	< 1e-05	8350	–	–	–
B13	< 0.00291	< 1e-05	3430	–	–	–
B14	0.0486	0.000235	4840	–	–	–
B15	0.43	0.00629	14600	–	–	–
B16	< 0.00243	< 1e-05	4120	–	–	–
B17	1.61	0.0601	37200	–	–	–

Binder	Kd [1] [µM]	koff [1] [s⁻¹]	kon [1] [M⁻¹ s⁻¹]	Kd [2] [µM]	koff [2] [s⁻¹]	kon [2] [M⁻¹ s⁻¹]
B18	0.0062	2.72e-05	4390	–	–	–
B19	< 0.00179	< 1e-05	5600	–	–	–
B20	< 0.0016	< 1e-05	6230	–	–	–
B21	0.0573	0.000589	10300	–	–	–
B22	0.0172	0.000663	38600	–	–	–
B23	2.47	0.00804	3250	–	–	–
B24	0.294	0.00276	9390	–	–	–
B25	0.237	0.00432	18300	–	–	–
B26	0.0884	0.000203	2290	–	–	–
B27	0.055	0.000734	13300	–	–	–
B28	0.372	0.00516	13900	–	–	–
B29	0.0633	0.000845	13300	–	–	–
B30	0.00801	0.000297	37000	–	–	–
B31	0.0401	0.000844	21100	–	–	–
B32	0.0606	0.00111	18400	–	–	–
B33	0.237	0.0322	136000	–	–	–
